# From article PMC10397247
# Like-named read-outs stand apart in the source and are kept apart here.
# T1: 4H3920-AA
# T1 chain: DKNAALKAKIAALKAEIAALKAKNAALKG
# T2: 4H3121-AA
# T2 chain: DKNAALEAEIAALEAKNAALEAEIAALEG
# T3: 4H428-AA
# T3 chain: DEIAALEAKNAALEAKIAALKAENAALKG
# T4: 4H675-AA
# T4 chain: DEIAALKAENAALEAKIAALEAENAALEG
# T5: 4H391-AA
# T5 chain: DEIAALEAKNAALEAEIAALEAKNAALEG
# T6: 4H971-AA
# T6 chain: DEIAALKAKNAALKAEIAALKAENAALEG
# T7: 4H3709-AA
# T7 chain: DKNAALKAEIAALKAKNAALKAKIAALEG
# T8: 4H656-AA
# T8 chain: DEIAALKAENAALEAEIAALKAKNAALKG
# T9: 4H3939-AA
# T9 chain: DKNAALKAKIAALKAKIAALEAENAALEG
# T10: 4H3417-AA
# T10 chain: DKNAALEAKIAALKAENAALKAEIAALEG
# T11: 4H497-AA
# T11 chain: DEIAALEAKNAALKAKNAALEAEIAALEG
# T12: 4H3446-AA
# T12 chain: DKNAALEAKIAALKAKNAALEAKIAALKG
# T13: 4H478-AA
# T13 chain: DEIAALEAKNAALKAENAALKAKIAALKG
# T14: 4H3591-AA
# T14 chain: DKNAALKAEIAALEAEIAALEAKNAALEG
# T15: 4H3666-AA
# T15 chain: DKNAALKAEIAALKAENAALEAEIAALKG
# T16: 4H3628-AA
# T16 chain: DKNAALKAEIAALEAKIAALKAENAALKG
# T17: 4H949-bH
# T17 chain: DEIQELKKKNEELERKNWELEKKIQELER
# T18: 4H796-bH
# T18 chain: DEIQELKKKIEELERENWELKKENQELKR
# T19: 4H932-bH
# T19 chain: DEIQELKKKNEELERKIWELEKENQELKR
# T20: 4H481-AA
# T20 chain: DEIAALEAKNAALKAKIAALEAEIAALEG
# T21: 4H55-AA
# T21 chain: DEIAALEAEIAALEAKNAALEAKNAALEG
# T22: 4H662-AA
# T22 chain: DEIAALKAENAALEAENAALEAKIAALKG
# T23: 4H4033-AA
# T23 chain: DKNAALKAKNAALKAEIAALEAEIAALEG
# T24: 4H949-bN
# T24 chain: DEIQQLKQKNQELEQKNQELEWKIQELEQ
# T25: 4H932-bN
# T25 chain: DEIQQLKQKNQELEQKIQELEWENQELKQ
# T26: 4H730-bN
# T26 chain: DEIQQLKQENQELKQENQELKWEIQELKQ
# T27: 4H796-bN
# T27 chain: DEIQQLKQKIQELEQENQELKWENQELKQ
# T28: 4H3922-AA
# T28 chain: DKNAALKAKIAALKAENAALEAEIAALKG
# T29: 4H3102-AA
# T29 chain: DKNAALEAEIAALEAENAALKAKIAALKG
# T30: 4H730-bH
# T30 chain: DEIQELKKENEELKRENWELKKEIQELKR
# T31: 4H883-bH
# T31 chain: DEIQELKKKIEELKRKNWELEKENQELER
# T32: 4H754-bH
# T32 chain: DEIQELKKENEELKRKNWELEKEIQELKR
# T33: 4H908-bH
# T33 chain: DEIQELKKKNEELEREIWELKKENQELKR
# T34: 4H568-bH
# T34 chain: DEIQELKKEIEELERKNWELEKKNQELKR
# T35: 4H607-bH
# T35 chain: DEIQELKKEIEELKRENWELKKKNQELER
# T36: 4H717-bH
# T36 chain: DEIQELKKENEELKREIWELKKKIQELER
# T37: 4H797-bH
# T37 chain: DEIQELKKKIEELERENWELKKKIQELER
# T38: 4H72-bH
# T38 chain: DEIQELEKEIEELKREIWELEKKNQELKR
# T39: 4H953-bH
# T39 chain: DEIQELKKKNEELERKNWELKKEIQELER
# T40: 4H967-bH
# T40 chain: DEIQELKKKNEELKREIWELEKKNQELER
# T41: 4H687-bH
# T41 chain: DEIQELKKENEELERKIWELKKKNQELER
# T42: 4H454-bH
# T42 chain: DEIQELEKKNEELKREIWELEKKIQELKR
# T43: 4H918-bH
# T43 chain: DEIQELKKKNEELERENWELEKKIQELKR
# T44: P9
# T44 chain: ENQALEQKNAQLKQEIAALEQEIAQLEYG
# T45: 4H_BCR
# T45 chain: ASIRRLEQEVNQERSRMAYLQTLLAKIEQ
# T46: 4H895-AA
# T46 chain: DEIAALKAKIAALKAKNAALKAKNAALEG
# T47: 4H_APH
# T47 chain: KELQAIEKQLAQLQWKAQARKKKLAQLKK
# T48: 4H850-bN
# T48 chain: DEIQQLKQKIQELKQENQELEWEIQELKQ
# T49: 4H619-bN
# T49 chain: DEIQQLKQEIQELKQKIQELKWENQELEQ
# T50: 4H906-bN
# T50 chain: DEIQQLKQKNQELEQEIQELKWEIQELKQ
# Experiments:
# [1] = target: T1, 4H3920-AA; test: two-hybrid library CCmax; details: mean of both orientations;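 further: natural log of median RNA to DNA barcode read ratio; higher means stronger binding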
# [2] = target: T2, 4H3121-AA; test: two-hybrid library CCmax;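 further: natural log of median RNA to DNA barcode read ratio; higher means stronger binding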
# [3] = target: T3, 4H428-AA; test: two-hybrid library CCmax; details: mean of both orientations;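 further: natural log of median RNA to DNA barcode read ratio; higher means stronger binding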
# [4] = target: T4, 4H675-AA; test: two-hybrid library CCmax;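 further: natural log of median RNA to DNA barcode read ratio; higher means stronger binding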
# [5] = target: T5, 4H391-AA; test: two-hybrid library CCmax; details: mean of both orientations
# [6] = target: T6, 4H971-AA; test: two-hybrid library CCmax; details: mean of both orientations
# [7] = target: T7, 4H3709-AA; test: two-hybrid library CCmax; details: mean of both orientations
# [8] = target: T8, 4H656-AA; test: two-hybrid library CCmax; details: mean of both orientations
# [9] = target: T9, 4H3939-AA; test: two-hybrid library CCmax; details: mean of both orientations
# [10] = target: T10, 4H3417-AA; test: two-hybrid library CCmax; details: mean of both orientations
# [11] = target: T11, 4H497-AA; test: two-hybrid library CCmax; details: mean of both orientations
# [12] = target: T12, 4H3446-AA; test: two-hybrid library CCmax; details: mean of both orientations
# [13] = target: T13, 4H478-AA; test: two-hybrid library CCmax; details: mean of both orientations
# [14] = target: T14, 4H3591-AA; test: two-hybrid library CCmax; details: mean of both orientations
# [15] = target: T15, 4H3666-AA; test: two-hybrid library CCmax; details: mean of both orientations
# [16] = target: T16, 4H3628-AA; test: two-hybrid library CCmax; details: mean of both orientations
# [17] = target: T17, 4H949-bH; test: two-hybrid library CCNG1
# [18] = target: T18, 4H796-bH; test: two-hybrid library CCNG1
# [19] = target: T19, 4H932-bH; test: two-hybrid library CCNG1
# [20] = target: T20, 4H481-AA; test: two-hybrid library CCmax; details: mean of both orientations
# [21] = target: T21, 4H55-AA; test: two-hybrid library CCmax; details: mean of both orientations
# [22] = target: T22, 4H662-AA; test: two-hybrid library CCmax; details: mean of both orientations
# [23] = target: T23, 4H4033-AA; test: two-hybrid library CCmax
# [24] = target: T24, 4H949-bN; test: two-hybrid library CCNG1
# [25] = target: T25, 4H932-bN; test: two-hybrid library CCNG1
# [26] = target: T26, 4H730-bN; test: two-hybrid library CCNG1
# [27] = target: T27, 4H796-bN; test: two-hybrid library CCNG1
# [28] = target: T28, 4H3922-AA; test: two-hybrid library CCmax
# [29] = target: T29, 4H3102-AA; test: two-hybrid library CCmax
# [30] = target: T30, 4H730-bH; test: two-hybrid library CCNG1
# [31] = target: T31, 4H883-bH; test: two-hybrid library CCNG1
# [32] = target: T32, 4H754-bH; test: two-hybrid library CCNG1
# [33] = target: T33, 4H908-bH; test: two-hybrid library CCNG1
# [34] = target: T34, 4H568-bH; test: two-hybrid library CCNG1
# [35] = target: T35, 4H607-bH; test: two-hybrid library CCNG1
# [36] = target: T36, 4H717-bH; test: two-hybrid library CCNG1
# [37] = target: T37, 4H797-bH; test: two-hybrid library CCNG1
# [38] = target: T38, 4H72-bH; test: two-hybrid library CCNG1
# [39] = target: T39, 4H953-bH; test: two-hybrid library CCNG1
# [40] = target: T40, 4H967-bH; test: two-hybrid library CCNG1
# [41] = target: T41, 4H687-bH; test: two-hybrid library CCNG1
# [42] = target: T42, 4H454-bH; test: two-hybrid library CCNG1
# [43] = target: T43, 4H918-bH; test: two-hybrid library CCNG1
# [44] = target: T44, P9; test: two-hybrid library CC1
# [45] = target: 4H_GCN4; test: two-hybrid library CCmax
# 4H_GCN4, sequence (chain, as listed by the source): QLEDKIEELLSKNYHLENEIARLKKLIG
# [46] = target: T45, 4H_BCR; test: two-hybrid library CCmax; details: mean of both orientations
# [47] = target: T46, 4H895-AA; test: two-hybrid library CCmax
# [48] = target: T47, 4H_APH; test: two-hybrid library CCmax; details: mean of both orientations
# [49] = target: GCN2_T; test: two-hybrid library CCmax; details: mean of both orientations
# [50] = target: T48, 4H850-bN; test: two-hybrid library CCNG1
# [51] = target: T49, 4H619-bN; test: two-hybrid library CCNG1
# [52] = target: T50, 4H906-bN; test: two-hybrid library CCNG1
binder,measurement,setting,value
DKNAALEAEIAALEAKNAALEAEIAALEG [4H3121-AA],interaction score,[1],-1.06
same,interaction score,[2],-1.24
same,interaction score,[3],-0.865
same,interaction score,[4],-2.08
same,interaction score,[5],-1.89
same,interaction score,[6],-1.39
same,interaction score,[7],-0.104
same,interaction score,[8],-1.6
same,interaction score,[9],-1.9
same,interaction score,[10],-1.39
same,interaction score,[11],-1.74
same,interaction score,[12],1.8
same,interaction score,[13],-0.966
same,interaction score,[14],-1.55
same,interaction score,[15],-0.746
same,interaction score,[16],-1.32
DEIQELKKKIEELERENWELKKENQELKR [4H796-bH],interaction score,[17],-0.00426
same,interaction score,[18],1.25
same,interaction score,[19],-0.89
DKNAALKAKNAALKAEIAALEAEIAALEG [4H4033-AA],interaction score,[20],-1.15
same,interaction score,[21],-1.39
same,interaction score,[22],1.17
same,interaction score,[23],-1.66
DEIQQLKQENQELKQENQELKWEIQELKQ [4H730-bN],interaction score,[24],-0.718
same,interaction score,[25],-0.353
same,interaction score,[26],1.55
same,interaction score,[27],-1.29
DKNAALKAKIAALKAENAALEAEIAALKG [4H3922-AA],interaction score,[20],1.69
same,interaction score,[28],-0.436
same,interaction score,[21],-1.32
same,interaction score,[22],-1.16
same,interaction score,[23]; mean of both orientations,-0.495
DKNAALEAEIAALEAENAALKAKIAALKG [4H3102-AA],interaction score,[1],-1.16
same,interaction score,[2]; mean of both orientations,-0.0964
same,interaction score,[3],0.651
same,interaction score,[4]; mean of both orientations,-0.00286
same,interaction score,[5],-0.9
same,interaction score,[6],-0.422
same,interaction score,[7],1.43
same,interaction score,[8],0.534
same,interaction score,[9],-1.39
same,interaction score,[10],2.29
same,interaction score,[11],-1.18
same,interaction score,[29],1.69
same,interaction score,[12],0.0866
same,interaction score,[13],1.81
same,interaction score,[14],-1.16
same,interaction score,[15],1.73
same,interaction score,[16],-0.57
DEIQELKKENEELKRENWELKKEIQELKR [4H730-bH],interaction score,[30],1.5
same,interaction score,[17],0.0896
same,interaction score,[18],-0.301
same,interaction score,[19],-1.05
DEIQELEKKNEELKREIWELEKKIQELKR [4H454-bH],interaction score,[31],-1.26
same,interaction score,[32],0.236
same,interaction score,[33],-0.536
same,interaction score,[34],0.197
same,interaction score,[35],-1.61
same,interaction score,[36],0.664
same,interaction score,[37],-0.829
same,interaction score,[38],0.203
same,interaction score,[39],1.26
same,interaction score,[40],0.69
same,interaction score,[41],1.81
same,interaction score,[42],1.6
same,interaction score,[43],-1.05
ENQALEQKNAQLKQEIAALEQEIAQLEYG [P9],interaction score,[44],-2.32
DEIAALKAKIAALKAKNAALKAKNAALEG [4H895-AA],interaction score,[45],-1.86
same,interaction score,[46],-2.06
same,interaction score,[47],-1.19
same,interaction score,[48],-1.22
same,interaction score,[49],-1.25
DEIQQLKQEIQELKQKIQELKWENQELEQ [4H619-bN],interaction score,[50],-0.223
same,interaction score,[51],1.24
same,interaction score,[52],-0.494
DEIQQLKQKIQELEQENQELKWENQELKQ [4H796-bN],interaction score,[24],-0.619
same,interaction score,[25],0.298
same,interaction score,[27],1.8
